As usually defined, the Kd is the equilibrium constant for the complex coming apart.

The labels stand for the following.
B1: ANKS3 SAM I455E (domain or fragment, human, UniProt Q6ZW76 421-490, looked up)
chain: RAPYSGPQDLAALLEQIGCLKYLQVFEEQDVDLREFLTLTESDLKEIGITLFGPKRKMTSAIARWHSSAR
B2: Bicc1 SAM R924E SeMet (domain or fragment, human, UniProt Q9H694 870-939, looked up)
chain: NSSFKGSDLPELFSKLGLGKYTDVFQQQEIDLQTFLTLTDQDLKELGITTFGAREK[SeMet]LLAISELNKNRRK
B3: Bicc1 SAM E898K (domain or fragment, human, UniProt Q9H694 870-939, looked up)
chain: NSSFKGSDLPELFSKLGLGKYTDVFQQQKIDLQTFLTLTDQDLKELGITTFGARRKMLLAISELNKNRRK
B4: Bicc1 SAM R924E (native) (domain or fragment, human, UniProt Q9H694 870-939, looked up)
chain: B3 chain with K29E, R55E
B5: Bicc1 SAM D911K (domain or fragment, human, UniProt Q9H694 870-939, looked up)
chain: B3 chain with K29E, D42K

Numbering of substitutions follows the chain as printed. Names may count otherwise. Non-standard residues stand in square brackets, D forms with d. SeMet = C[Se]CC[C@H](N)C(=O)O

One data set has as its target ANKS6 SAM (Homo sapiens) (UniProt Q68DC2). The settings on record: cited from earlier work.
The data set “Bicc1 SAM R924E (native)” deals with B4. Description: SPR. (In general: SPR reads the build-up and loss of mass on a sensor chip optically.)
The next data set deals with T1, Bicc1 SAM F920E (human, UniProt Q9H694 870-939, F920E).
T1 sequence (looked up): B3 chain with K29E, F51E
As to the kind of experiment: SEC-MALS. Background: In gel filtration, larger molecules generally elute earlier.

The data set “crystal structure” concerns the molecule itself. As to the kind of experiment: crystal structure.
A further data set addresses T2, ANKS3 SAM F472E (human, UniProt Q6ZW76 421-490, F472E).
T2 sequence (looked up): B1 chain with E35I, F52E
Description: SPR.

Chain of ANKS6 SAM (Homo sapiens) (Q68DC2 770-839): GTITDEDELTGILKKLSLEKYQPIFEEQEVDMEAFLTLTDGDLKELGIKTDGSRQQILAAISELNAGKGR

Turning to ANKS3 SAM (from UniProt Q6ZW76), the dissociation constant (Kd) with ANKS6 SAM (Homo sapiens) was 249 nM.
B1 returned a Kd with Bicc1 SAM R924E (native) of 2200 ± 100 nM. In addition, the binding result with Bicc1 SAM F920E is “binds”.
As to B2, in “crystal structure”, the binding result is listed as “binds”.
Regarding B3, the equilibrium dissociation constant (Kd) in the data set with Bicc1 SAM R924E (native) and with ANKS3 SAM F472E was 1350 ± 100 nM in each case.
Regarding B4, the binding result in the data set “crystal structure” is given as “binds”.
Turning to B5, the dissociation constant Kd with Bicc1 SAM R924E (native) and with ANKS3 SAM F472E was 1350 ± 100 nM in each case.

The values above are taken from PMC6258031 (Structure (London, England : 1993), 2017).
